Laboratory results from publication PMC6829599 (The Journal of Experimental Medicine, 2019).

B1: p47phox PX domain (truncated p47phox, residues 2–132) (domain or fragment)
chain: GDTFIRHIALLGFEKRFVPSQHYVYMFLVKWQDLSEKVVYRRFTEIYEFHKTLKEMFPIEAGAINPENRIIPHLPAPKWFDGQRAAENRQGTLTEYCSTLMSLPTKISRCPHLLDFFKVRPDDLKLPTDNQ

Key:
[1] = biological target: recombinant PCNA (proliferating cell nuclear antigen) (human) (UniProt P12004); assay: SPR
[2] = biological target: recombinant PCNA (proliferating cell nuclear antigen) (human, UniProt P12004 1-261); assay: SPR

Row | Molecule | Kd [1] | k (backward) (two-state model, second step) [1] | k (forward) (two-state model, second step) [1] | ka1 (two-state model, first step) [1] | kd1 (two-state model, first step) [1] | Kd [2] | kon [2]
1 | recombinant human Rac2 (from UniProt P15153 1-192) (natural protein; other documents disagree on this pair) | 3.3 µM | 0.00066 s⁻¹ | 0.0057 s⁻¹ | 541 M⁻¹ s⁻¹ | 0.017 s⁻¹ | – | –
2 | B1 | – | – | – | – | – | 33 µM | 85.2 M⁻¹ s⁻¹
